Values of other authors in US9333241B2, “Thyroid-stimulating hormone receptor polypeptide agonist glycoforms to treat metabolic syndrome” (LipoLytics Therapeutics, LLC, priority 2005, dated 2016).

How the values were obtained:
[1] = tested on: rodent models of the metabolic syndrome; conditions: recombinant glycoproteins produced in CHO cells
human TSHR = target: T1, human TSHR (Homo sapiens, UniProt P16473); conditions: human TSHR transfected into CHO cells
T1 construct: expressed in transfected cells; host or cells: CHO cells
T1 sequence (P16473 21-764): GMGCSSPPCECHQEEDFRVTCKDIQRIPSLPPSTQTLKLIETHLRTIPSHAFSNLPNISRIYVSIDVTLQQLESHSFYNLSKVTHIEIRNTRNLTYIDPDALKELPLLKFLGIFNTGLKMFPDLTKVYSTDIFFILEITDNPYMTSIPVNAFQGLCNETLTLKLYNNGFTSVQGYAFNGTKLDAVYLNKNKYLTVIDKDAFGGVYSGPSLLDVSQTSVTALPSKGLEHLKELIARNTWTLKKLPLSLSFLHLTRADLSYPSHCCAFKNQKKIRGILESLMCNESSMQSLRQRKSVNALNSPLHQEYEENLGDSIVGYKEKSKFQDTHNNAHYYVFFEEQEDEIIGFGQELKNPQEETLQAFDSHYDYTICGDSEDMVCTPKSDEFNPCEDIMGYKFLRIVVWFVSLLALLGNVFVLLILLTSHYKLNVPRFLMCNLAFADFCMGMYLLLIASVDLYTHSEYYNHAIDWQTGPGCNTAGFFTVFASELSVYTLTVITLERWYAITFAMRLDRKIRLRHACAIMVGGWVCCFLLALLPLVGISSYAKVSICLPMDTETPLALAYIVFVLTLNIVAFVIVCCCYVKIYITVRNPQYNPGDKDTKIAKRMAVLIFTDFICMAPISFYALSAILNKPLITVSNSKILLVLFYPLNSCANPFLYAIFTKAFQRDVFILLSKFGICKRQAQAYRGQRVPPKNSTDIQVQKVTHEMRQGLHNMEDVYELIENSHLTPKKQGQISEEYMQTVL

B1: CGH: heterodimeric glycoprotein of GPHA2 and GPHB5 subunits, produced recombinantly in CHO cells (protein, listed as Homo sapiens)
alpha: QEAVIPGCHLHPFNVTVRSDRQGTCQGSHVAQACVGHCESSAFPSRYSVLVASGYRHNITSVSQCCTISGLKKVKVQLQCVGSRREELEIFTARACQCDMCRLSRY
beta: ASSGNLRTFVGCAVREFTFLAKKPGCRGLRITTDACWGRCETWEKPILEPPYIEAHHRVCTYNETKQVTVKLPNCAPGVDPFYTYPVAIRCDCGACSTATTECETI
- effect of treatment in rodents [1]: improved glucose and lipid profiles and in reversed liver steatosis
- activation of human TSHR (human TSHR): potently activates
